The target of test [1] is Q223R extracellular murine leptin receptor Fc (LepRec-Fc) chimera (murine) (UniProt P48356). The test is described as follows: SPR; BiaCore T200, CM5 chip; anti-mouse IgG1 amine-coupled (~2000 RU) captures LepRec-Fc from the concentrated supernatant (100-300 RU); leptin 1.25-60 nM as analyte; 25°C, HBS-EP buffer, 30 µl/min; 600 s association, 1000 s dissociation; global 1:1 Langmuir fit; mean of two experiments.

The target in test [2] is WT extracellular murine leptin receptor Fc (LepRec-Fc) chimera (murine) (UniProt P48356). The description is as above.

In test [1], “Recombinant murine leptin (from UniProt P41160 22-167) (ligand)” displayed a Kd of 0.0843 nM, a koff of 0.000147 s⁻¹ and a kon of 1.75e+06 M⁻¹ s⁻¹. Also, in test [2], the Kd came to 0.0647 nM, the koff was found to be 0.000121 s⁻¹ and the kon was 1.76e+06 M⁻¹ s⁻¹.

Source of the values: paper PMC3990580.
